From patent US20040214992A1, “Mutation induced optimization of receptor signal to noise ratio” (priority 2001, published 2004)
Positions count from the first letter of the chain named. Values belong to the molecule of their own block, whether it stands above or below them.

Tests used:
CCR-3 receptor [1] = experiment: SRE-Luc + Gq5i luciferase reporter assay, wild-type or mutant CCR-3 receptor; type: cell-based, human; settings: luciferase activity; for Ligand-stimulated Activity / Basal Activity: average of 5 experiments; for Basal Activity: no ligand
Text: (§1) Alternatively, Gαi coupling can also be measured using a positive assay (i.e., one that yields an increase in activity upon receptor activation), instead of a negative assay (i.e., one that yields a decrease in activity upon receptor activation). This assay provides a more detectable output signal and less interassay variation. In one such assay, a chimeric G protein (Gq5i, Broach and Thomer, Nature 384 (Suppl.):14-16 (1996)) that contains the entire Gαq protein having the five C-terminal amino acids from Gαi attached to the C-terminus of Gαq is used. This chimeric G protein is recognized as Gαi by Gαi coupled receptors, but switches the receptor induced signaling from Gαi to Gαq. This allows Gαi receptor coupling to be detected using a positive assay by use of a Gαq responsive SMS-Luc or SRE-Luc construct (Stratagene, La Jolla, Calif.). SMS and SRE preferably respond to Gαq mediated inositol and calcium production. Moreover, detection can be carried out in the absence of forskolin pre-stimulation of cells.
(§2) The basal activity of the Tyr235Glu mutant CCR-3 receptor was assessed using a luciferase assay. The CCR-3 receptor is a Gαi coupled receptor. Therefore, we chose to use the SRE-Luc+Gq5i reporter system, described in detail above (Broach and Thorner, supra), which switches the signaling pathway from Gαi to Gαq for reliable positive readout. The luciferase assay was carried out as described above for the serotonin 2A receptor.

CCR-3 receptor [2] = target: T1, CCR-3 receptor (Homo sapiens, UniProt P51677, Y235E); experiment: as above; type: cell-based; settings: basal activity of mutant vs wild-type
T1 construct: expressed in transfected cells; host or cells: HEK293 (inferred: assay 'as described above for the serotonin 2A receptor')
T1 sequence (P51677 1-355 Y235E): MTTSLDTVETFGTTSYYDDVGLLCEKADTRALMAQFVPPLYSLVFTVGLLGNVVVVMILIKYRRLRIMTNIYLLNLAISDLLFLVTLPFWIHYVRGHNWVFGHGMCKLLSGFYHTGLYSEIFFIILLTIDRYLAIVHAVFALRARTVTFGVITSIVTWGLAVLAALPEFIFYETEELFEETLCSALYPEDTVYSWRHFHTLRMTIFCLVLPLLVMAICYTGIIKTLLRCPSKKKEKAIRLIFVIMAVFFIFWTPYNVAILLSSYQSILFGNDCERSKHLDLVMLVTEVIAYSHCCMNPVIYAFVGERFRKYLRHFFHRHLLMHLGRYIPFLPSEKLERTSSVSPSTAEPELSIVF
Text: as §1, §2

Stimulated/Basal Ratio (CCR-3 receptor [1]): 12 | Ligand-stimulated Activity (CCR-3 receptor [1]): 151,445 | Basal Activity (CCR-3 receptor [1]): 12,626 | basal activity compared to wild-type receptor (in words) (CCR-3 receptor [2]): decrease in basal activity
B1: Lys323Glu CCR-3: silenced mutant CCR-3 receptor with Tyr to Glu substitution at position 235 of SEQ ID NO: 2 (protein, UniProt P51677 1-355, looked up, variant Y235E)
C-C chemokine receptor type 3: T1 sequence (P51677 1-355 Y235E)

Stimulated/Basal Ratio (CCR-3 receptor [1]): 4.7 | Ligand-stimulated Activity (CCR-3 receptor [1]): 157,389 | Basal Activity (CCR-3 receptor [1]): 33,177
B2: wild-type CCR-3: wild-type CC chemokine receptor 3 (CCR-3), G protein-coupled receptor, SEQ ID NO: 2 (protein, UniProt P51677 1-355, looked up)
C-C chemokine receptor type 3: T1 sequence (P51677 1-355 Y235E) with E235Y
